Reference: PMC11847541, “Liver fatty acid binding protein FABP1 transfers substrates to cytochrome P450 4A11 for catalysis” (The Journal of Biological Chemistry, 2025)

Legend:
P450 4A11 [1] = target: T1, P450 4A11 (Homo sapiens, UniProt Q02928); test: Fluorescence titration of Alexa-FABP1 with P450 4A11; type: binding; conditions: 10 mM potassium phosphate pH 7.4, quadratic fit
T1 construct: made in house; host or cells: E. coli
T1 sequence (Q02928 5-519): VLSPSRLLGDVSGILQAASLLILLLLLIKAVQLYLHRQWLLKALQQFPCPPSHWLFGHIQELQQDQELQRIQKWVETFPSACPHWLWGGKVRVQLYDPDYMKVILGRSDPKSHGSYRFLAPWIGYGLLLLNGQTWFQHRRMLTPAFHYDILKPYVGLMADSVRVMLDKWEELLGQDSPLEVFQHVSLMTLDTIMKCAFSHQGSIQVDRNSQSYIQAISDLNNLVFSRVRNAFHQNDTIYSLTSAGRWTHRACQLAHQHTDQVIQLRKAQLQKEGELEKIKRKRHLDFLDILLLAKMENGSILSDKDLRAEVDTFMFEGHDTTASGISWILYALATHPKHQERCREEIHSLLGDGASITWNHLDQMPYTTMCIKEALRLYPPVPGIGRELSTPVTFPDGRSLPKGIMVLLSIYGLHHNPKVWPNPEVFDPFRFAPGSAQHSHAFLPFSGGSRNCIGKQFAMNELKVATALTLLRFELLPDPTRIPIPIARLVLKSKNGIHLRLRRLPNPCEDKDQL
T1 sequence (P07148 with tags, fused parts or gaps partner): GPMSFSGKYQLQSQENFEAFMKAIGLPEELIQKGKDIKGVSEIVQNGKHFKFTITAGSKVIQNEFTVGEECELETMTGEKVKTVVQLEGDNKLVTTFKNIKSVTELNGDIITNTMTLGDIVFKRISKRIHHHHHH
Procedure: The Alexa-FABP1 construct was tested for P450 binding in a fluorescence titration with P450 4A11.
Figure 10 Binding of Alexa-FABP1 to P450 4A11.A, equilibrium binding titration of Alexa-FABP1 (25 nM) with P450 4A11 as the titrant (0–50 nM). Titrations were performed in 10 mM (closed circles) or 100 mM (open circles) potassium phosphate buffer (pH 7.4). A control reaction was performed with P450 101A1 (P450cam) in 100 mM KPhos (open squares). The change in fluorescence upon protein–protein binding was normalized to the corresponding change in a buffer control. […] Each data point corresponds to one independent replicate, ≥3 biological replicates were collected to confirm the effect. B, kinetics of binding of Alexa-FABP1 (0.125 μM) and P450 4A11 (0.125 μM). Six traces were averaged, and the data were fit to a single exponential curve (in red). The extracted binding rate was 2.0 ± 0.2 s^−1. FABP1, fatty acid binding protein.
Alexa-FABP1 (25 nM [estimated by an asborbance at 280 nm prior to conjugation reaction, accounting for dilution, and assuming no protein loss during the reaction]) was prepared in potassium phosphate buffer (10 mM or 100 mM, pH 7.4) in a 1 ml glass cuvette. A buffer baseline was recorded using an OLIS DM-45 spectrofluorometer (1.24 mm slit width) with excitation wavelength of 470 nm and scanning emission spectra from 500 to 600 nm. P450 4A11 (stored in 100 mM potassium phosphate buffer [pH 7.4] containing 20% glycerol) was titrated (0–50 nM) into the Alexa-FABP1 solution. The same experiment was repeated but with the P450 4A11 buffer used as the titrant to normalize the data for any solvent effect. […] As stimulation was observed by the P450 interaction, the value of one was subtracted from the normalized fluorescence values so that the curve would have an (x, y) intercept of (0, 0). Kd values were calculated fitting plots of the normalized fluorescence at emission maximum versus concentration of P450 4A11 using a quadratic equation in GraphPad Prism software.

P450 4A11 [2] = target: T2, P450 4A11 (Homo sapiens, UniProt Q02928); test: Stopped-flow kinetics of palmitate binding to P450 4A11 (type I shift); design: made in house; host or cells: E. coli; conditions: P450 4A11 1 μM, palmitate 5 μM; read-out: kon to P450 4A11 (k1)
T2 sequence (Q02928 5-519): T1 sequence (Q02928 5-519)
Procedure: To assess the rates of lipid binding to P450 4A11 (k1), type I spectral shift (from ∼420 nm to ∼390 nm, described previously) was monitored after rapid mixing of P450 and palmitate (Fig. 9A, magenta [substrate free], blue [substrate bound]). When P450 4A11 (1 μM) was mixed with palmitate (5 μM), slow binding kinetics were observed (Fig. 9B). Single exponential fitting of the data yielded a binding rate of 0.21 ± 0.03 s^−1 (kon = k1 = 4.2 ± 0.6 × 10^4 M^−1 s^−1).
Figure 9 Kinetics of fatty acid binding to P450 4A11.A, spectra were collected with 1 μM P450 4A11 (purple line) to which 5 μM palmitate (blue line) and 50 μM ketoconazole (red line) were successively added to induce characteristic P450 “type I” and “type II” spectral shifts, respectively. B, P450 4A11 (1 μM) was rapidly mixed with palmitate (5 μM), and the P450 blue shift (A) was monitored and fit to an exponential equation (blue line) yielding a kon value of 0.21 ± 0.03 s^−1. C, 16-OH palmitate (4 μM) and D, palmitate (10 μM) were preincubated with P450 4A11 (2 μM) and rapidly mixed with ketoconazole (100 μM), and the P450 red shift (part A) was monitored and fit to biexponential equations (red lines). […]
On-rates (kon) to P450 4A11 with lipids were determined by monitoring the hypsochromic (“blue,” “type I”) shift in the heme Soret (A418 [hexacoordinated] → A390 [pentacoordinated]) as substrate binds. […]

Row | Molecule | Kd (P450 4A11 [1]) | kon (P450 4A11 [2])
1 | FABP1: delipidated recombinant liver fatty acid binding protein with C-terminal hexahistidine tag | ~3 nM | –
2 | CCCCCCCCCCCCCCCC(=O)O [Palmitate (C16), palmitate] | – | 42000 ± 6e+07 M⁻¹ s⁻¹
